Reference: publication PMC9720396, “Autoreactivity and broad neutralization of antibodies against HIV-1 are governed by distinct mutations: Implications for vaccine design strategies” (Frontiers in Immunology, 2022)

What was measured:
[1] = target: T1, host protein UBE3A (Abcam), coupled to Luminex beads, Q05086; assay: Luminex bead assay; settings: chain shown with the change; left panel; highest antibody concentration plotted, est. 2000 ng/ml; parent: est. 12; read off a plot
T1 chain: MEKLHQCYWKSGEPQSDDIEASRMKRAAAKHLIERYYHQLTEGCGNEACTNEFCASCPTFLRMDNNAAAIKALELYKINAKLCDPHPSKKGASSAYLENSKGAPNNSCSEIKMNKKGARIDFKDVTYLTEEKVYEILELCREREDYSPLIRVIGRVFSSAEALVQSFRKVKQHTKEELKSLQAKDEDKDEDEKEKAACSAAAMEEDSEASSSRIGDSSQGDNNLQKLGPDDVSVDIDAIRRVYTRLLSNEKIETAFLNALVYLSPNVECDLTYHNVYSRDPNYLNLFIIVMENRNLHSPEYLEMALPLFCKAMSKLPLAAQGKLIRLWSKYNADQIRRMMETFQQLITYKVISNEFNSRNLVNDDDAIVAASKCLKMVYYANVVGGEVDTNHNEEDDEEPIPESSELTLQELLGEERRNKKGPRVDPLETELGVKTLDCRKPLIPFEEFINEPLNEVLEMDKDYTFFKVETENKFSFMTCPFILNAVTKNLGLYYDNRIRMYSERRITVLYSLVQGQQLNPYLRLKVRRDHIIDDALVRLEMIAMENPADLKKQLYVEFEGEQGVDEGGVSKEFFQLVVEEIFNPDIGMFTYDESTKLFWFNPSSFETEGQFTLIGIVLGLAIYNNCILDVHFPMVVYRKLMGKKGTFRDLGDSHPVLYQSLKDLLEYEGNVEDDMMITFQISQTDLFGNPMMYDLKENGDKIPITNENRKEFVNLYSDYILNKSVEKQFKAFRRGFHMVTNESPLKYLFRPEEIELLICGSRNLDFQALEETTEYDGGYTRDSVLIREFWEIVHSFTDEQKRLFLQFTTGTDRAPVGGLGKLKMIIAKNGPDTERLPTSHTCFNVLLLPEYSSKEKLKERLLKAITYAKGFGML

[2] = target: host proteins on the ProtoArray (9,400 human proteins) (human); assay: peptide or protein array; ProtoArray (Invitrogen) with 9,400 human proteins, in duplicate; 2 µg/ml recombinant Ab, 1.5 hours at 4°C; detected with Alexa Fluor 647 anti-human IgG; compared with the control Ab 151K
[3] = target: T2, UBE3A on the ProtoArray human protein microarray (Homo sapiens, UniProt Q05086); assay: as above; settings: both partners purified
T2 construct: UBE3A, one of the 9,400 human proteins on the ProtoArray; source: bought: Invitrogen ProtoArray

[4] = target: T3, Cen B (Homo sapiens (assumed), UniProt P07199); assay: ELISA; autoantigen ELISA (legend: Athena autoantigen assay); antigens coated at 20 µg/ml overnight at 4°C; Abs in serial dilutions 45 min at RT; HRP anti-human IgG, TMB, 450 nm; settings: both partners purified
T3 construct: Cen B autoantigen (centromere protein B) of the autoantigen ELISA

[5] = target: T4, host protein UBE3A (Abcam), coupled to Luminex beads (Homo sapiens, UniProt Q05086); assay: Luminex bead-based binding assay; UBE3A (Abcam) covalently linked to carboxylated beads; Abs serially diluted 1:3 from 2 µg/ml in PBS with 0.05% NaN3, 0.05% Tween 20, 1% BSA and 1% milk; 2 hours at room temperature; detected with PE goat anti-human IgG; settings: both partners purified
T4 construct: UBE3A, host protein; bought from Abcam (printed there as UBE34); also called UBE34; source: bought: Abcam

T3 sequence (P07199 whole entry): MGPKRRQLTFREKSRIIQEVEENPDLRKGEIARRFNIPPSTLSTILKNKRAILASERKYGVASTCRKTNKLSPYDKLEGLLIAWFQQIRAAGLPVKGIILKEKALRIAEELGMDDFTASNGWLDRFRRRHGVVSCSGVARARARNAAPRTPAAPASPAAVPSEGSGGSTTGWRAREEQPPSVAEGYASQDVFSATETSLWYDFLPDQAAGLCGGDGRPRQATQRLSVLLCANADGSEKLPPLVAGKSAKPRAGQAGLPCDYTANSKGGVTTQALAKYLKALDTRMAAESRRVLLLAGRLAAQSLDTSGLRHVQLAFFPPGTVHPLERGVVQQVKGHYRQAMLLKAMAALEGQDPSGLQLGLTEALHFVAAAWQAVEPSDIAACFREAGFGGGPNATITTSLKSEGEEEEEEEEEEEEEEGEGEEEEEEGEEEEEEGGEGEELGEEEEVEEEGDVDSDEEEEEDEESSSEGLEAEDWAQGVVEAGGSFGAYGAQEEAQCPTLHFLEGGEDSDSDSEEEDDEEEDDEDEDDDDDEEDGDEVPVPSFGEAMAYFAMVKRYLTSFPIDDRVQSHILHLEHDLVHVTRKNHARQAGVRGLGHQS

Binder | binding result [5] | also measured
IA2_E64K (antibody, V domains shown, as the heavy chain of m8 (IA2); as the light chain of m8 (IA2); recombinant IgG; also called the E64K mutant; IA2 E64K mutant; source: Expi293, transiently transfected, purified (Protein A agarose)) V domain 1: QVQLQESGPGVVKSSETLSLTCTVSGGSMGGTYWSWLRLSPGKGLEWIGYIFHTGHTNYNPSLKGRVSISVDTSEDQFSLRLRSVTAADTAVYFCASLPRGQLVNAYFRNWGRGTLVSVTA V domain 2: SYELTQPPSVSVSPGQTATITCSGDKVASKNVCWYQVKPGQSPEVVMYENYKRPSGIPDRFSGSKSGSTATLTIRGTQATDEADYYCQVWDSFSTFVFGSGTQVTV |  | response [1]: 2200 gMFI; polyreactivity index (PI) [2]: 0.14; fold higher binding than Abs without E64K [3]: ~10 fold; binding result [4]: binds
CH106, mature CD4 binding site bnAb (antibody, V domains shown, as the heavy chain of m10 (CH103) with the three differences below; as the light chain of m10 (CH103) with the differences below and a 3-aa (DKV) insertion; recombinant IgG; source: Expi293, transiently transfected, purified (Protein A agarose)) V domain 1: QVQLQESGPGVVKSSETLSLTCSVSGGSMGGTYWSWLRLSPGKGLEWIGYIFHTGHTNYSPSLKGRVSISVDTSEDQFSLRLRSVTAADTAVYFCASLPRGQLVNAYFRNWGRGILVSVTA V domain 2: SYELTQPPSVSVSPGQTATITCSGDKVASVNVCWYQVKPGQSPDVVMYENYKRPSGIPDRFSGSKSGSTATLTIRGTQATDEAEYYCQVWDSFSTFVFGSGTQVTV | binds | 
IA2, inferred late intermediate of the CH103-106 bnAb lineage (antibody, V domains shown, same light chain as IA1; recombinant IgG; source: Expi293, transiently transfected, purified (Protein A agarose)) V domain 1: QVQLQESGPGVVKSSETLSLTCTVSGGSMGGTYWSWLRLSPGKGLEWIGYIFHTGHTNYNPSLEGRVSISVDTSEDQFSLRLRSVTAADTAVYFCASLPRGQLVNAYFRNWGRGTLVSVTA V domain 2: SYELTQPPSVSVSPGQTATITCSGDKVASKNVCWYQVKPGQSPEVVMYENYKRPSGIPDRFSGSKSGSTATLTIRGTQATDEADYYCQVWDSFSTFVFGSGTQVTV | no binding (tested: 2 µg/ml) | 
CH103 VL mutant with the 3-aa insertion (DKV) (antibody, V domains shown, as the heavy chain of m10 (CH103); as the light chain of m10 (CH103) with DKV inserted as in CH106; recombinant IgG; also called 3-aa (DKV) insertion; source: Expi293, transiently transfected, purified (Protein A agarose)) V domain 1: QVQLQESGPGVVKSSETLSLTCTVSGGSMGGTYWSWLRLSPGKGLEWIGYIFHTGETNYSPSLKGRVSISVDTSEDQFSLRLRSVTAADTAVYFCASLPRGQLVNAYFRNWGRGSLVSVTA V domain 2: SYELTQPPSVSVSPGQTATITCSGDKVASTNVCWYQVKPGQSPEVVIFENYKRPSGIPDRFSGSKSGSTATLTIRGTQAIDEADYYCQVWDSFSTFVFGSGTQVTV | binds | 
CH103 VH S107I mutant (antibody, V domains shown, as the heavy chain of m10 (CH103); as the light chain of m10 (CH103); recombinant IgG; source: Expi293, transiently transfected, purified (Protein A agarose)) V domain 1: QVQLQESGPGVVKSSETLSLTCTVSGGSMGGTYWSWLRLSPGKGLEWIGYIFHTGETNYSPSLKGRVSISVDTSEDQFSLRLRSVTAADTAVYFCASLPRGQLVNAYFRNWGRGILVSVTA V domain 2: SYELTQPPSVSVSPGQTATITCSGASTNVCWYQVKPGQSPEVVIFENYKRPSGIPDRFSGSKSGSTATLTIRGTQAIDEADYYCQVWDSFSTFVFGSGTQVTV | binds | 
CH103 VL I81T mutant (antibody, V domains shown, as the heavy chain of m10 (CH103); as the light chain of m10 (CH103); recombinant IgG; source: Expi293, transiently transfected, purified (Protein A agarose)) V domain 1: QVQLQESGPGVVKSSETLSLTCTVSGGSMGGTYWSWLRLSPGKGLEWIGYIFHTGETNYSPSLKGRVSISVDTSEDQFSLRLRSVTAADTAVYFCASLPRGQLVNAYFRNWGRGSLVSVTA V domain 2: SYELTQPPSVSVSPGQTATITCSGASTNVCWYQVKPGQSPEVVIFENYKRPSGIPDRFSGSKSGSTATLTIRGTQATDEADYYCQVWDSFSTFVFGSGTQVTV | binds | 
CH103 VL D85E mutant (antibody, V domains shown, as the heavy chain of m10 (CH103); as the light chain of m10 (CH103); recombinant IgG; source: Expi293, transiently transfected, purified (Protein A agarose)) V domain 1: QVQLQESGPGVVKSSETLSLTCTVSGGSMGGTYWSWLRLSPGKGLEWIGYIFHTGETNYSPSLKGRVSISVDTSEDQFSLRLRSVTAADTAVYFCASLPRGQLVNAYFRNWGRGSLVSVTA V domain 2: SYELTQPPSVSVSPGQTATITCSGASTNVCWYQVKPGQSPEVVIFENYKRPSGIPDRFSGSKSGSTATLTIRGTQAIDEAEYYCQVWDSFSTFVFGSGTQVTV | binds | 
CH103 mutant containing both the E56H and E45D mutations (antibody, V domains shown, as the heavy chain of m10 (CH103); as the light chain of m10 (CH103); recombinant IgG; the double mutant is named only in the results; also called CH103 VH E56H + VL E45D; source: Expi293, transiently transfected, purified (Protein A agarose)) V domain 1: QVQLQESGPGVVKSSETLSLTCTVSGGSMGGTYWSWLRLSPGKGLEWIGYIFHTGHTNYSPSLKGRVSISVDTSEDQFSLRLRSVTAADTAVYFCASLPRGQLVNAYFRNWGRGSLVSVTA V domain 2: SYELTQPPSVSVSPGQTATITCSGASTNVCWYQVKPGQSPDVVIFENYKRPSGIPDRFSGSKSGSTATLTIRGTQAIDEADYYCQVWDSFSTFVFGSGTQVTV | binds | 
